Assay: soluble on expression in E. coli; label from the status in PepcDB or PDB records

Row | Sequence | soluble on expression in E. coli
1 | MSLRLYFVRHGKTQWNLEGRLQGSKGDSPLLKESIEQVSELGHYLSDTHFDLVLSSDLPRAKKTTELIMESQKTKAKITYTKDLREWQLGKLEGQKLSIIQAIYPKEMDAFRHNLANFRANNFQAESVYHTTKRVADLVRTLKDSSMKNVLLVGHGANLTASIRSLLGFEPGLLRKAGGLDNASVTILETDDCEHFTLKSWNDTSYRTQVNKISEGHHHHHH | soluble
2 | MKKIAIFAGDGIGPEIVAAARQVLDAVDQAAHLGLRCTEGLVGGAALDASDDPLPAASLQLAMAADAVILGAVGGPRWDAYPPAKRPEQGLLRLRKGLDLYANLRPAQIFPQLLDASPLRPELVRDVDILVVRELTGDIYFGQPRGLEVIDGKRRGFNTMVYDEDEIRRIAHVAFRAAQGRRKQLCSVDKANVLETTRLWREVVTEVARDYPDVRLSHMYVDNAAMQLIRAPAQFDVLLTGNMFGDILSDEASQLTGSIGMLPSASLGEGRAMYEPIHGSAPDIAGQDKANPLATILSVAMMLRHSLNAEPWAQRVEAAVQRVLDQGLRTADIAAPGTPVIGTKAMGAAVVNALNLKD | soluble
3 | KKDDFRNEFDHLLIEQANHAIEKGEHQLLYLQHQLDELNENKSKELQEKIIRELDVVCAMIEGAQGALERELKRTDLNILERFNYEEAQTLSKILLKDLKETEQKVKDIQTQ | soluble
4 | MGSMSMNAEQTVAELIARSNRLGSDPKNTNYAGGNTSAKGTDTDPVTGQPVELLWVKGSGGDLGTLTENGLAVLRLDRMRALVDVYPGVEREDEMVAAFDYCLHGRGGAAPSIDTAMHGLVDAAHVDHLHPDSGIALATAADGEALTKQIFGDRVVWVPWRRPGFQLGLDIADIKRRNPQAIGTILGGHGITAWGSTSAEAEAHSLEIIETAERYIAENGLEHHHHHH | soluble
5 | MSLKSVASGKELAGLRVMVIDDSKTIRRTAETLLKREGCEVVTAIDGFEALAKIADQKSQIIFVDIMMPRLDGYQTCALIKNNNLFKSTPVIMLSSKDGLFDKARGRVVGSEQYLTKPFTREELLSAIRTYVNPLKLAEGHHHHHH | not soluble
6 | GPGSMVRIRSLAKELRQLELQKQTASLPPPRAASSDDVLDDATRSATSSRKPEAPSCSSSPRDGDILTNAAHASTTAEAEAVPSSSPASRTVAAAEPQPTSAFPLSQLSLSSPDGAHNRSRNSLYSLGGSRFNILLGGSHGDGGACRKSQVRKATRACASGGGKNGAATATATQVPQRRGEAGGSSLLEKGKDGEVVANPAPPLGTSSGIPTRPPFKRLLAQPFSHVLVCDFEATCASGSVHYPHEIIEFPVVVLDTATLRIVAEFHRYVRPLRNPKLTAFCTELTGITQEMVDVADPLPTVVAQFQDWLKTEVYPLCWMWARHYGPNRLSHNLKSEQRRFVYDEHTDAAKANTSAEAMVCMATDGPWDMRRFMHQCSVLRDGVDFPPVCYRYINVRHSYSDHFKCRQAKLTHMLKKMSMSFEGRRHSGIDDTRNIARVLAELFARGYRVHHVSTITYAHRGDAFLESNRAAQELLSEFGETDETHTSKHANAHKGGGRQRGVKRA | not soluble
7 | MAHHHHHHMQRQVIRRLGNRSAFPLVAAVARSSQIRGAVRGDSGSRARVIPSFMCSLRAYSGGHHEEPSSRSGQYLLDKSDVLTRVLEVVKNFEKVDASKVTPESHFVKDLGLNSLDVVEVVFAIEQEFILDIPDHDAEKIQSIPDAVEYIAQNPMAK | soluble
8 | SLRETVFRNARVLDVARGAYDDGQSVVVRDGVIVAVATDAHRLAGADAREIDVAGRVLMPGLCDAHVHVTAFTPDFALLGRTAPSYVTVRAQDILQGMIGRGFTTVRDAGGADWGLAKALAEGAIVGPRLLYCGHALSQTGGHADMRGPGQHNLDQCLCCAGLGQVCDGVPEMRRACREEIRKGATHLKLMVSGGVASPTDRIDSTQFALDELRAACEEAEAANIPVMAHAYTGRAAVRALEAGVSSIEHGNLIDQAAIDTLLRLDRWLVPTLATYHALAAEGVEAGMPAELNKKVYTVLEAGTEALRMAAKAGVKLVYGSDLLGTMQRHQLTEFAIRAVVQDPIDILRAATTQAAALFRMEDRIGAVRAGYLADLLIVDGDVLHSVAPWSAPEETIKMVMKDGEILVSR | soluble
9 | GGELVLLPAPQIPLIMKIMKKHTPTWVPGVPTLYQKIVEAAERDGISISGVRNSFSGASSLPVETVARWEALTGGLLVEGYGLTETSPIIVGNPMTTDRRPGYVGVPFPDTEIRIANPDNLDETMPDGQEGEVLVRGPQVFSGYLNNPEATAKSFHGQWYRTGDVGIMEEDGFIRLVARIKEVIITGGFNVYPAEVEEVLRNHPDITDATVVGLPRGD | not soluble
10 | MIRFCLQCLKTKKACICEWITPITTDIELIILQHPTEAKRPLGTAKILSLSLVNCRTFIGENFSEHSELNQLLADDSYHHQVLFLDNESKAIGTDKALLQKKQRVILLDGTWKKAYKMWQLSTNLHSLPKVHLNTDLSGNYRVRKAPKDNALSTAEAGYHILTQLDNDCVASNNVEKFDSILTAFDNMIEFHISQMPEGVFEKNYRSLEHHHHHH | soluble
11 | MSLKNPRIVVVDDSPFSVSILTDMLQRNGFEVVGSASNLNEVKKAVTELNPNLVTMDMVLADTDGLECTKIIHQINPEIRVIAISSMMDDEILAKAKKNNISAYIQKPIDEEELVLAINRISSDDDLYSELKDRYFDIFKQAFSYAFNKFIKEVPNFVEKDEHTVEHVEKGISIVMGIIGKYCGRLILNISYETADKFVESVLNRPAKDLQEILNVVAEFANIVGGNACSMINRENKIFGMRIAPPTTIYGDSINISRNSLDTMNFFTVNVTAGEISVNIGFNKGAVEWMSNEGHHHHHH | soluble
12 | MPRYPFRRFGFGALRRLLYLWVRSETINQSAFTLKIDRSKPVLYVLQQPSVSDLAVVDTECRKAGLPRPVMPVAVGDAIEPAAFFYLTPEPDWLGRQDKRGASPTLVRMLAAVGQNGLDDAQIIPVSVFWGQSPDSESSPWKLLFADNWAVTGRLRKLARILILGRKTRVQFSAPIHLRELVEQGKGHERTLRMVNRILRVHFRNLKTAVIGPDLSHRRNLVKGLLRAPLVRQAISEECESERISQEKAEGIALRYANEIASDFSYPVIRFLEVILSWFWNKLYEGVKVNHIERVQDVAQGNEIVYVPCHRSHIDYLLLSYLLFRNGLTPPHIAAGINLNMPVIGSILRRGGAFFMRRSFKGNQLYTAVFNEYLHTLFSRGFSTEYFVEGGRSRTGRMLHPRTGMLAITLRSFLRDSRRPIVFVPVYIGYERVLEGRTYLGELRGATKKKESIFDLFKVVGALKQRFGQVWVNFGEPIHLDQFLDRHQPDWQDQDLGPEYRPDWLPQTTNLLAKDVARHLNDAAAINPVNLVALALLSTSRQALDESALARILDLYLALLRKVPYSPSATLPDGDGQALIEYVKSMNLLAEQKDALGRILYLDEQNAVLATYYRNNVLHVFALPALIASFFQSNSRISREQLLRFARALYPYLQAELFIRWSLDELDAVIDQWLAALVEQDLLRQENDTFIRPAPSSRQYVLLILLARSVTQTLQRFYMAIALLLNAGQNALTAEELENLCTVMAQRLSILHGLNAPEFFDKSLFRHFIQTLLDLRVLRKDEAGKLSYHELLGELAEGAAKRVLPAEIRLSIRQVALERPAEEAAAESN | not soluble
13 | MGSDKIHHHHHHMLSRFARQLALPVFNGVLHPTRATSSIAHTIKVAHKIDETREKALLGGGKKRVDAQHARGKLTARERIDLLLDRNTFREYDMFAEHTCNDFGMQKEKYPGDSVVTGRGEINGRTVFVFSQDFTVFGGSLSSIHAKKIVKIMREAMLVGAPVIGLNDSGGARIQEGVESLAGYADIFQENVMASGVVPQISMIMGPCAGGAVYSPALTDFTFMVRDTSYLFITGPDVVKAVTNEEVTQEELGGAKTHTVTSGVAHGAFDNDVDALMSLRELFNYLPLSNTDAAPIRAAEDPWDRAVPSLDTVVPLESTAAYNMKDVVHALVDEGDFFEIMPDYAKNLVIGFARMNGRTVGIVGNNPKFAAGCLDINSSVKGARFVRFCDAFNIPIITLVDVPGFLPGTAQEYGGIIRHGAKLLYAFAEATVPKITIITRKAFGGAYDVMSSKHLRGDINYAWPTAEVAVMGAKGAVSILFRNDKEHAVQHEEEYTELFSNPFPAAVRGFVDDIIIPSETRKKVCEDLNMLESKKLKNPWKKHGNIPL | not soluble
14 | MGPGTTVRWRRRVSGWRRAGCAALIAGAVALPLSGAARPEIPAPPPAALAAPTAATLDKAYAANRANAAEASRMAADHGDRHRAAADRAMADRSRRLLAFDGRGTGLATEVFGDLARADRVAVLVPGSDTGLDTYGRFRATALALHRQLVAEAPAGTRTAVVAWLGYETPGTVSTTVATTDRADRAAPELRALVGDLRRITGPGTRLALLCHSYGSVVCARAADGLEVADIALVGSPGTGADTAAGLHSEARVWAGRGAEDWVEHVPHVSADLFGTTVGFGTDPVSPAFGARVFDAGDGGHSDYFDPGSRSLTNLARIALGETTEVTHALEHHHHHH | not soluble
15 | SLCIDRQLYSAVQNSNRQKHQPLNSYVSLSDENESDHLEGSWSEDPEALIIDQESTRTLEREITKVLSPMENKVLDYYLRGYGYVKIAEIMGKTPKSIDNALQRIRGKIRNFSAPVQK | not soluble
16 | MDLQIIQNKIFEVRGCRVMLDFHLAELYQVETRALKQAVKRNLSRFPSDFAFQLTKDEWQGLITNCDKFPENIRHTPTPPLAFLEQGVAMLSSVLRSQTAIDVNISIMRAFVLMRQMSIGYEELLKRIEELEQSTDAQFSEVYQALTQLLSKPDPKPRKPIGYRTYDE | not soluble
17 | MGCEPKRDCGCCQNSICEFLQSLEPYTKVESIIIAGNEIAVSYFLSFNKKTGIVSFVQEDNEVIFVDCSKIDAIRIGKVCSCKTKVKYIEEDFSLLGNVCPHCLTEGSTIFFDFNNPELNVSFQATTINPPRCTEFTDDLGNVVKQITIVGEAKVSRDFVQVPELVGFRLLLSHLAGDPLNYGLLFINFPDTIFIFILASSGYLSISNCLKIEGGTGDAEIEEMKKMIEDDVNTYKSVVKLTKVYKNGETESFIYKNEL | not soluble
18 | MGSDKIHHHHHHMYNEGVTSPSQLARKKNATDKWHGSSIRKILENPHYTGTLQQCREYRPSVTSKRRRSVNLENQIIIEKSHEPIIPLEDFLIVQEILITRKRRRPQAEVHLFTNTAVCKDCRRSMHFKKNRKGYVCGSYNKHGLKACSDHYVSEIDLTDKVITNLNKIYLKFSKENYFKELSEKALKYKEKIESKIIEINEKLNDKKRDKSNLVISLANGVISKEDYQLAINITNEDISNFETTLHQLSKDLEFQKIEKEIIDFKKSLDKFMKEGTLTPEMLHLLVDEIEVHANGTIEINYRFREPTVPSA | not soluble
19 | MSSEERSRQPSTVSTFDLEPNPFEQSFASSKKALSLPGTISHPSLPKELSRNNSTSTITQHSQRSTHSLNSIPEENGNSTVTDNSNHNDVKKDSPSFLPGQQRPTIISPPILTPGGSKRLPPLLLSPSILYQANSTTNPSQNSHSVSVSNSNPSAIGVSSTSGSLYPNSSSPSGTSLIRQPRNSNVTTSNSGNGFPTNDSQMPGFLLNLSKSGLTPNESNIRTGLTPGILTQSYNYPVLPSINKNTITGSKNVNKSVTVNGSIENHPHVNIMHPTVNGTPLTPGLSSLLNLPSTGVLANPVFKSTPTTNTTDGTVNNSISNSNFSPNTSTKAAVKMDNPAEFNAIEHSAHNHKENENLTTQIENNDQFNNKTRKRKRRMSSTSSTSKASRKNSISRKNSAVTTAPAQKDDVENNKISNNVTLDENEEQERKRKEFLERNRVAASKFRKRKKEYIKKIENDLQFYESEYDDLTQVIGKLCGIIPSSSSNSQFNVNVSTPSSSSPPSTSLIALLESSISRSDYSSAMSVLSNMKQLICETNFYRRGGKNPRDDMDGQEDSFNKDTNVVKSENAGYPSVNSRPIILDKKYSLNSGANISKSNTTTNNVGNSAQNIINSCYSVTNPLVINANSDTHDTNKHDVLSTLPHNN | soluble
20 | MERLHLSWEDLLRLVRRLAEALSGEPFDLVLGVARGGLIPTALLAQALGARNILTAAVMFYEGEEALPEPVFLQFPPDVLLFGKRVLVVDDVWDSGRTAFAVKARVRRAGGVPVVATLHFKPGRNRVPDRPDFYAEETAAWVVYPWALEAWPKG | soluble
